Measurements: publication PMC8978939, “VHL-P138R and VHL-L163R Novel Variants: Mechanisms of VHL Pathogenicity Involving HIF-Dependent and HIF-Independent Actions” (Frontiers in Endocrinology, 2022)

What was measured:
VHL-P138R-Venus = target: T1, VHL-P138R-Venus (human, UniProt P40337 1-213, P138R); assay: co-IP; GFP-Trap_A kit on 1 mg protein from 786-0 cell lines stably expressing VHL-Venus (WT, P138R, L163R) or GFP; Western blot for Elongin B and Elongin C; band ratios Elongin/pVHL normalised to WT set as 1; conditions: partners not purified
T1 construct: von Hippel-Lindau protein (pVHL), human, patient variant P138R (CCA to CGA) made by site-directed mutagenesis of VHL-WT-Venus-Retro; Variant found in patients with VHL disease (type 2B); also called P138R VHL-Venus; P138R pVHL
T1 sequence (P40337 whole entry P138R): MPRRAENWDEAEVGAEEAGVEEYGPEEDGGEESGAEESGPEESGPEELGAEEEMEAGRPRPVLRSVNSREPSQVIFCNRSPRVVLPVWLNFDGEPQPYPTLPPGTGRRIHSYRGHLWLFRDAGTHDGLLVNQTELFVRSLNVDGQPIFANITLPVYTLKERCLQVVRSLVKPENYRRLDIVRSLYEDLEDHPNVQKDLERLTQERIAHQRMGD

VHL-L163R-Venus = target: T2, VHL-L163R-Venus (human, UniProt P40337 1-213, L163R); assay: as above; conditions: partners not purified
T2 construct: von Hippel-Lindau protein (pVHL), human, patient variant L163R (CTC to CGC) made by site-directed mutagenesis of VHL-WT-Venus-Retro; Variant found in patients with VHL disease (type 2C); also called L163R VHL-Venus; L163R pVHL
T2 sequence (P40337 whole entry L163R): as the sequence (P40337 whole entry P138R) above, with R138P, L163R counted along it

B1: Elongin B (natural protein, human (endogenous in 786-0), UniProt Q15370 1-118, looked up)
chain: MDVFLMIRRHKTTIFTDAKESSTVFELKRIVEGILKRPPDEQRLYKDDQLLDDGKTLGECGFTSQTARPQAPATVGLAFRADDTFEALCIEPFSSPPELPDVMKPQDSGSSANEQAVQ
notes: also called EloB; source: endogenous, 786-0 RCC cell lysate
With B1 the “ratio Elongin B/pVHL, normalised to WT pVHL set as 1” value (VHL-P138R-Venus) was about 0.6 and the “ratio Elongin B/pVHL, normalised to WT pVHL set as 1” value (VHL-L163R-Venus) was 0.25.
